Laboratory results from patent US20050154189A1 (MAXYGEN, published 2005).

Target: T1, Soluble CD28-Ig (human, UniProt P10747 19-152, biotin-conjugated (NHS-biotin) in the labelled-ligand FACS assays)
T1 construct: extracellular domain; Bought from R&D Systems; also called sCD28-Ig; CD28-Ig Fc; not shown: Fc portion of human IgG1
Assay: two-colour FACS profile on transfected cells; score of preference for CD28-Ig over CTLA-4-Ig vs WT hB7-1

| Binder | Binding Score |
| --- | --- |
| Round 1 CD28BP-126 (ligand, also called R1clone 126; Clone 126) ITPKSVTKRVKETVMLSCDYSTSTEELTSLRIYWQKDSKMVLAILPGKVQVWPEYKNRTITDMNDNPRIVILALRLSDSGTYTCVIQKPDLKGAYKLEHLTSVRLMIRADFPVPTINDLGNPSPNIRRLICSTSGGFPRPHLYWLENGEELNATNTTVSQDPGTELYMISSELDFNVTNNHSIVCLIKYGELSVSQIFPWSKPKQEPPIDQLPFWVIIPVSGALVLTAVVLYCLACRHVARWKRTRRNEETVGTERLSPIYLGSAQSSG | 1 |
| Round 2 CD28A8-4 (ligand) ITPKSVTKRVKETVMLSCDYNTSTEELTSLRIYWQKDSKMVLAILPGKVQVWPEYKNRTITDMNDNPRIVILALRLSDSGTYTCVIQKPVLKGAYKLEHLTSVRLMIRADFPVPTINDLGNPSPNIRRLICSTSGGFPRPHLYWLENGEELNATNTTVSQDPGTELYMISSELDFNVTNNHSIVCLIKYGELSVSQIFPWSKPKQEPPIDQLPFWVIIPVSGALVLTAVVLYCLACRHVARWKRTRRNEETVGTERLSPIYLGSAQSSG | 1 |
| Round 2 CD28A6-1 (ligand) ITPKSVTKRVKETVMLSCDYNTSTEELTSLRIYWQKDSKMVLAILPGKVQVWPEYKNRTITDMNDNPRIVILALRLSDSGTYTCVIQKPVLKGAYKLEHLASVRLMIRADFPVPTINDLGNPSPNIRRLICSTSGGFPRPHLYWLENGEELNATNTTVSQDPETKLYMISSELDFNVTNNHSIVCLIKYGELSVSQIFPWSKPKQEPPIDQLPFRVIIPVSGALVLTAIVLYCLACRHVARWKRTRRNEETVGTERLSPIYLGSAQSSG | 1 |
| Round 2 CD28BP-4 (ligand) ITPKSVTKRVKETVMLSCDYNTSTEELTSLRIYWQKDSKMVLAILPGKVQVWPEYKNRTITDMNDNPRIVILALRLSDSGTYTCVIQKPVLKGAYKLEHLASVRLMIRADFPVPTINDLGNPSPNIRRLICSTSGGFPRPHLCWLENGEELNATNTTVSQDPGTELYMISSELDFNVTNNHSIVCLIKYGELSVSQIFPWSKPKQEPPIDQLPFWVIIPVSGALVLTAVVLYCLACRHVARWKRTRRNEETVGTERLSPIYLGSAQSSG | 2 |

Other lines, results leading:

| Binding Score | Binder |
| --- | --- |
| 2 | Round 2 CD28BP-5 (ligand) ITPKSVTKRVKETVMLSCDYSTSTEELTSLRIYWQKDSKMVLAILPGKVQVWPEYKNRTITDMNDNPRIVILALRLSDKGTYTCVVQKPVLKGAYKLEHLTSVRLMIRADFPVPTINDLGNPSPNIRRLICSTSGGFPRPHLYWLENGEELNATNTTVSQDPGTELYMISSELDFNVTNNHSIVCLIKYGELSVSQIFPWSKPKQEPPIDQLPFWVIIPVSGALVLTAVVLYCLACRHVARWKRTRRNEETVGTERLSPIYLGSAQSSG |
| 1 | Round 2 CD28A4-5* (ligand) ITPKSVTKRVKETVMLSCDYNTSTEELTSLRIYWQKDSKMVLAILPGKVQVWPEYKNRTITDMNDNPRIVILALRLSDSGTYTCVIQKPVLKGAYKLEHLTSVRLMIRADFPVPTINDLGNPSPNIRRLICSTSGGFPRPHLYWLENGEELNATNTTLSQDPETKLYMISSELDFNVTNNHSIVCLIKYGELSVSQIFPWSKPKQEPPIDQLPFWVIIPVSGALVLTAVVLYCLACRHVARWKRTRRNEETVGTERLSPIYLGSAQSSG |
| 2 | Round 2 CD28BP-2 (ligand) ITPKSVTKRVKETVMLSCDYSTSTEELTSLRIYWQKDSKMVLAILPGKVQVWPEYKNRTITDMNDNPRIVILALRLSDSGTYTCVIQKPVLKGAYKLEHLASVRLMIRADFPVPTINDLGNPSPNIRRLICSTSGGFPRPHLYWLENGEELNATNTTLSQDPETKLYMISSELDFNVTNNHSIVCLIKYGELSVSQIFPWSKPKQEPPIDQLPFWVIIPVSGALVLTAVVLYRPACRHVARWKRTRRNEETVGTERLSPIYLGSAQSSG |
| 1 | Round 2 CD28B2-8 (ligand) ITPKSVTKRVKETVMLSCDYNTSTEELTSLRIYWQKDSKMVLAILPGKVQVWPEYKNRTITDMNDNPRIVILALRLSDKGTYTCVIQKPVLKGAYKLEHLASVRLMIRADFPVPTINDLGNPSPNIRRLICSTSGGFPRPHLYWLENGEELNATNTTVSQDPGTELYMISSELDFNVTNNHSIVCLIKYGELSVSQIFPWSKPKQEPPIDQLPFWVIIPVSGALVLTAVVLYCLACRHVARWKRTRRNEETVGTERLSPIYLGSAQSSG |
| 2 | Round 2 CD28BP-16 (ligand) ITPKSVTKRVKETVMLSCDYNTSTEELTSLRIYWQKDSKMVLAILPGKVQVWPEYKNRTITDMNDNPRIVILALRLSDSGTYTCVIQKPVLKGAYKLEHLTSVRLMIRADFPVPTINDLGNPSPNIRRLICSTSGGFPRPHLYWLENGEELNATNTTVSQDPGTELYMISSELDFNVTNNHSIVCLIKYGELSVSQIFPWSKPKQEPPIDQLPFWVIIPVSGALVLAAVVLYCLACRHVARWKRTRRNEETVGTERLSPIYLGSAQSSG |
| 1 | Round 2 CD28A6-9 (ligand) ITPKSVTKRVKETVMLSCDYNTSTEELTSLRIYWQKDSKMVLAILPGKVQVWPEYKNRTITDMNDNPRIVILALRLSDSGTYTCVIQKPVLKGAYKLEHLASVRLMIRADFPVPTINDLGNPSPNIRRLICSTSGGFPRPHLYWLENGEELNATNTTVSQDPGTELYMISSELDFNVTNNHSIVCLIKYGELSVSQIFPWSKPKQEPPIDQLPFLVIIPVSGALVLTAVVLYCLACRHVARWKRTRRNEETVGTERLSPIYLGSAQSSG |
| 2 | Round 2 CD28BP-13 (ligand) ITPKSVTKRVKETVMLSCDYSTSTEELTSLRIYWQKDSKMVLAILPGKVQVWPEYKNRTITDMNDNPRIVILALRLSDSGTYTCVIQKPVLKGAYKLEHLASVRLMIRADFPVPTINDLGNPSPNIRRLICSTSGGFPEPRLAWMEDGEELNAVNTTVDQDLDTELYSVSSELDFNVTNNHSIVCLIKYGELSVSQIFPWSKPKQEPPIDQLPFWVIIPVSGALVLTAVVLYCLACRHVARWKRTRRNEETVGTERLSPIYLGSAQSSG |

Target: T2, Soluble CTLA-4-Ig (human, UniProt P16410 36-161, FITC-conjugated in the two-colour FACS assays; unlabelled and detected with FITC goat anti-human IgG in the concentration-dependent assay)
T2 construct: extracellular domain; Bought from R&D Systems; also called sCTLA-4-Ig; CTLA-4-Ig Fc; not shown: Fc portion of human IgG1
Assay: two-colour FACS profile on transfected cells; score of preference for CTLA-4-Ig over CD28-Ig vs WT hB7-1

T2 sequence (P16410 36-161): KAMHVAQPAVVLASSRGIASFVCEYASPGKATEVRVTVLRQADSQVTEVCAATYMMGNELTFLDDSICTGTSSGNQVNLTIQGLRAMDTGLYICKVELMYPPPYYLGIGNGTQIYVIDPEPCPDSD

| Binder | Binding Score |
| --- | --- |
| Round 2 CTLA4 A-H4-5* (ligand) ITPKSVTKRVKETVMLSCDYSTSTEELTSLRIYWQKDSKMVLAILPGKVQVWPEYKNRTITDMNDNPRIVILALRLSDKGTYTCVVQKNENGSFRREHLTSVTLSIRADFPVPSITDIGHPAPNVKRIRCSASGGFPEPRLYWLENGEELNATNTTVSQDPGTELYMISSELDFNVTNNHSIVCLIKYGELSVSQIFPWSKPKQEPPIDQLPFWVIIPVSGALVLTAVVLYCLACRHVARWKRTRRNEETVGTERLSPIYLGSAQSSG | 1 |
| Round 2 CTLA4 A-C9-9 (ligand) SGITPKSVTKRVKETVMLSCDYSTSTEELTSLRIYWQKDSKMVLAILPGKVQVWPEYKNRTFPDIINNLSLMILALRLSDRGTYTCVVQKNENGSFRREHLTSVTLSIRADFPVPSITDIGHPAPNVKRIRCSASGGFPEPRLAWMEDGEELNAVNTTVDQDLDTELYSVGSELDFNVTNNHSIVCLIKYGELSVSQIFPWSKPKQEPPIDQLPFWVIIPVSGALVLTAVVLYCLARRHVARWKRTRRNEETVGTERLSPIYLGSAQSSG | 0 |
| Round 2 CTLA4BP-5x2-10c (ligand) VIHVTKEVKEVATLSCGHNVSVEELAQTRIHWQKEKKMVLTMMSGDMNIWPEYKNRTIFDITNNLSIVILALRPSDEGTYECVVLKYEKDAFKREHLAEVMLSVKADFPTPSITDFEIPPSNIRRIICSTSGGFPEPHLSWLENGEELNAINTTVSQDPETELYTVSSKLDFNMTANHSFVCLIKYGHLRVNQTFNWNTPKQEHFPDNLLPSWAITLISVNGIFVICCLTYCFAPRCRERRNETLRRESVRPV | 2 |
| Round 2 CTLA4BP-5x2-11d (ligand) VIHVTKEVKEVATLSCGHNVSVEELAQTRIHWQKEKKMVLTMMSGDMNIWPEYKNRTIFDITNNLSIVILALRPSDEGTYECVVLKYEKDAFKREHLAEVMLSVKADFPTPSITDFEIPPSNIRRIICSTSGGFPEPHLFWLENGEELNAINTTVSQDPETELYTVSSKLDFNMTTDRSFVCLIKYGHLRVNQTFNWNTPKQEHFPDNLLPSWAITLISANGIFVICCLTYCFAPRCRERKSNETLRRESVRPV | 2 |

Now from value to binder:

| Binding Score | Binder |
| --- | --- |
| 1 | Round 1 CTLA4BP-7 (ligand, also called R1-7; R1 CTLA-4BP-7) VIHVTNEVKEVATLSCGHNVSGEELAQTRIYWQKEKKMVLTMMYGDMNIWPEYKNRTIFDITNNLSIVILALRPSDEGTYECVVLKYEKDAFKREHLAEVMLSVKADFPTPSITDFEIPPSNIRRIICLTSGGFPEPRLAWMKDGEELNAISTTVSQDPGTELYAVSSKLDFNMTTNHSFMCLIKYGHLRVNQTFSWNTPKQEHFPDNLLPSWAITLISVNGIFVICCLTYCFAPRCRERRRNERLRRESVRPV |
| 1 | Round 2 CTLA4 A-F1-6 (ligand) ITPKSVTKRVKETVMLSCDYSTSTEELTSLRIYWQKDSKMVLAILPGKVQVWPEYKNRTITDMNDNPRIVILALRLSDKGTYTCVVQKNENGSFRREHLTSVRLMIRADFPVPTINDLGNPSPNIRRLICSTSGGFPRPHLYWLENGEELNATNTTLSQDPETKLYMISSELDFNMTSNHSFLCLVKYGDLTVSQTFYWQESKPTPSANQHLTWTIIIPVSAFGISVIIAVILTCLTCRNAAIRRQRRENEVEMQSCSQSP |
| 1 | Round 2 CTLA4 A-F10-1 (ligand) ITPKSVTKRVKETVMLSCDYNTSTEELTSLRIYWQKDSKMVLAILPGKVQVWPEYKNRTITDMNDNPRIVILALRLSDKGTYTCVVQKNENGSFRREHLTSVTLSIRADFPVPTINDLGNPSPNIRRLICSTSGGFPRPHLYWLENGEELNATNTTLSQDPETKLYMISSELDFNMTSNHSFLCLVKYGDLTVSQTLYWQESKPTPSANQHLTWTIIIPVSAFGISVIIAVILTCLTCRNAAIRRQRRENEVEMQSCSQSP |
